Results from article PMC10547724, “Structural insights into the conformational changes of BTR1/SLC4A11 in complex with PIP2” (Nature Communications, 2023).
Numbering of substitutions follows the chain as printed. Names may count otherwise.

B1: BTR1 (SLC4A11), full-length human, wild type (natural protein, UniProt Q8NBS3-1 1-891, looked up)
chain: MSQVGGRGDRCTQEVQGLVHGAGDLSASLAENSPTMSQNGYFEDSSYYKCDTDDTFEAREEILGDEAFDTANSSIVSGESIRFFVNVNLEMQATNTENEATSGGCVLLHTSRKYLKLKNFKEEIRAHRDLDGFLAQASIVLNETATSLDNVLRTMLRRFARDPDNNEPNCNLDLLMAMLFTDAGAPMRGKVHLLSDTIQGVTATVTGVRYQQSWLCIICTMKALQKRHVCISRLVRPQNWGENSCEVRFVILVLAPPKMKSTKTAMEVARTFATMFSDIAFRQKLLETRTEEEFKEALVHQRQLLTMVSHGPVAPRTKERSTVSLPAHRHPEPPKCKDFVPFGKGIREDIARRFPLYPLDFTDGIIGKNKAVGKYITTTLFLYFACLLPTIAFGSLNDENTDGAIDVQKTIAGQSIGGLLYALFSGQPLVILLTTAPLALYIQVIRVICDDYDLDFNSFYAWTGLWNSFFLALYAFFNLSLVMSLFKRSTEEIIALFISITFVLDAVKGTVKIFWKYYYGHYLDDYHTKRTSSLVSLSGLGASLNASLHTALNASFLASPTELPSATHSGQATAVLSLLIMLGTLWLGYTLYQFKKSPYLHPCVREILSDCALPIAVLAFSLISSHGFREIEMSKFRYNPSESPFAMAQIQSLSLRAVSGAMGLGFLLSMLFFIEQNLVAALVNAPENRLVKGTAYHWDLLLLAIINTGLSLFGLPWIHAAYPHSPLHVRALALVEERVENGHIYDTIVNVKETRLTSLGASVLVGLSLLLLPVPLQWIPKPVLYGLFLYIALTSLDGNQLVQRVALLLKEQTAYPPTHYIRRVPQRKIHYFTGLQVLQLLLLCAFGMSSLPYMKMIFPLIMIAMIPIRYILLPRIIEAKYLDVMDAEHRP
notes: human BTR1 (SLC4A11), full length, residues 1-891 (NTD 1-307, TMD 336-891), amplified from human HEK293 cDNA; GFP and His tag removed with TEV protease before gel filtration; Residues 1-103, 308-335 and 888-891 were not built in the model; also called NaBC1; bicarbonate transporter-related protein-1; source: HEK293F cells, baculovirus (BacMam) infection, purified (Ni-NTA, TEV cleavage, gel …)
B2: BTR1 (SLC4A11) R125H, full-length human, pathogenic mutant (natural protein, UniProt Q8NBS3-1 1-891, looked up)
chain: B1 chain with R125H
notes: human BTR1 (SLC4A11), full length, with the disease-associated mutation R125H made in the PBM-SLC4A11 plasmid; GFP and His tag removed with TEV protease before gel filtration; also called BTR1-R125H; BTR1_(IF/R125H); source: HEK293F cells, baculovirus (BacMam) infection, purified (Ni-NTA, TEV cleavage, gel filtration) in GDN micelles; not shown: GFP, C-terminal, cleaved; His8, C-terminal, cleaved

Target: the molecule itself
Assay: cryo-EM structure; single-particle cryo-EM of protein purified in GDN micelles (150 mM NaCl, 20 mM HEPES pH 7.4); wild type apo or with NH4Cl (outward-facing), R125H mutant (inward-facing; pH not named for it)

Protein | stoichiometry N
B1 | 2
B2 | 2
